Patent US9290794B2, “Mutant protease biosensors with enhanced detection characteristics” (PROMEGA CORPORATION, priority 2010, dated 2016)
Where a chain is given by its changes, count along the chain named.

B1: 01:A-05: CBS variant of TL-CP358-DEVD:DD, 507TI (SEQ ID NOs:7 and 8) (protein)
chain: MPGSTGKIVPLHAVKVVDPTTGKILGPNEPGELYFKGPMIMKGYYNNEEATKAIIDNDGWLRSGDIAYYDNDGHFYIVDRLKSLIKYKGYQVAPAEIEGILLQHPYIVDAGVTGIPDEAAGELPAAGVVVQTGKYLNEQIVQDYVASQVSIAKWLRGGVKFLDEIPKGSTGKIDRKVLRQMLEKHTNGSDEVDGSLKNILYGPEPFYPLEDGTAGEQMFDALSRYAAIPGCIALTNAHTKENVLYEEFLKLSCRLAESFKKYGLKQNDTIAVCSENSLQFFLPVIASLYLGIIVAPVNDKYIERELIHSLGIVKPRIVFCSKNTFQKVLNVKSKLKSIETIIILDLNEDLGGYQCLNNFISQNSDSNLDVKKFKPYSFNRDDQVASIMFSSGTTGLPKGVMLTHKNIVARFSIAKDPTFGNAINPTSAILTVIPFHHGFGMMTTLGYFTCGFRVVLMHTFEEKLFLQSLQDYKVESTLLVPTLMAFLAKSALVEKYDLSHLKEIASGGAPLSKEIGEMVKKRFKLNFVRQGYGLTETTSAVLITPKGV
B2: FC7: 43: CBS variant, 471IT 503SG 507TI (SEQ ID NOs:11 and 12) (protein)
chain: B1 chain with I115T, S147G
B3: FC7: 49: CBS variant, 193SP 503SG 507TI (SEQ ID NOs:13 and 14) (protein)
chain: B1 chain with S147G, S386P
B4: FC7: 24: CBS variant, 193SP 471IT 503SG 507TI (SEQ ID NOs:9 and 10) (protein)
chain: B1 chain with I115T, S147G, S386P

System: caspase-3
Test: CBS variants transiently transfected in HEK293 cells, kinetic luminescence response to TRAIL treatment
Assay type: cell-based
Conditions: for RESPONSE, IMPROVEMENT OVER TL-CP358-DEVD:DD: ratio of INDUCED to BASAL; for BASAL, IMPROVEMENT OVER TL-CP358-DEVD:DD: time (0); for greater RESPONSE compared with TL-CP358-DEVD:DD: live cells (FIGS. 2, 3)
Source text: The Caspase-3 BioSensor (CBS) is a thermostable Photuris pennsylvanica luciferase (TL), circularly-permuted (CP) at amino acid 358, with a caspase-3 recognition site, i.e., one containing the caspase-3 recognition site comprising amino acids DEVD, at the junction between the TL fragments. The specific CBS that was used as the starting template is termed TL-CP358-DEVD:DD. The amino acid sequence of this CBS can be represented as: M/TL residues 358-544/SDEVDGSL/TL residues 4-354/V (SEQ ID NO:6). The amino acid positions in the CP TL correlate to those of the non-CP TL sequence (provided in the attached appendix). Upon treatment with caspase-3, CBS is cleaved at the recognition site allowing the two TL fragments to form a more favorable, higher activity, conformation.
The utility of CBS is the differential activity before and after cleavage by caspase-3. The basal activity of CBS is defined as the activity at assay time (O), before caspase-3 has had time to cleave at the recognition site. The induced activity is defined as the activity at some later time (t) after CBS has been cleaved by caspase-3. The response or fold increase in activity, is the ratio of induced to basal activity. Substitutions in TL-CP358-DEVD:DD were generated to develop CBS variants with enhanced responsivity to induction using the error-prone, mutagenic PCR-based system GeneMorph II (Stratagene; Daugherty, PNAS USA 97(5):2029 (2000)), according to manufacturer's instructions.
The resulting library was expressed in E. coli and screened for luciferase activity with and without pre-treatment with recombinant caspase-3 (data not shown). CBS variants having the best signal and response characteristics were then evaluated in HEK293 cells by kinetic assay measuring the response to TNF-α-related apoptosis inducing ligand (TRAIL) treatment (Wiley, S. R. et al., Immunity 3:673 (1995); Niles, A. L. et al., Meth. Mol. Biol. 414:137 (2008)). TRAIL induces apoptosis via activation of the death receptor to form active caspase-8, which in turn activates procaspase 3 to produce caspase-3. The appearance of active caspase-3 should be accompanied by an increase in luminescence as the CBS variants are cleaved and activated. Briefly, HEK293 cells, plated at 15,000 cells/well in a 96-well plate, were transiently transfected using TransIT-LTI (Mires Bio) with plasmid DNAs encoding various CBS variants with amino acid substitutions in TL-CP358-DEVD:DD. The same plasmids also carried a gene for constitutive expression of Renilla luciferase to act as a transfection control. Cells were pretreated with 2 mM luciferin for 2 hrs at 37° C. Cells were treated with 1 μg/mL TRAIL and assayed for 10 hrs at 37° C. Luminescence was monitored continuously over time (Luminometer: Varioskan Flash (Thermo) 1 sec integration time). Cells in replicate wells were lysed, at the time of TRAIL addition, i.e., time (0) and Renilla luciferase activity was measured. All biosensor data was then normalized for transfection efficiency using Renilla luciferase luminescence (Dual-GloAssay System; Promega Corporation).
Table 1 lists the variants of TL-CP358-DEVD:DD, identified by clone name, showing improved response to TRAIL treatment. Improvements listed in Table 1 are normalized to the parental TL-CP358-DEVD:DD CBS. “BASAL” represents the normalized biosensor luminescence at TRAIL addition, i.e., time (0), “INDUCED” represents the normalized biosensor luminescence at roughly 10 hrs after TRAIL addition, and “RESPONSE” represents the fold-induction, i.e., the ratio of INDUCED to BASAL activity.
Additional CBS variants were generated using the oligo-based site-directed mutagenesis kit Quik Change (Stratagene; Kunkel, PNAS USA 82(2):488 (1985)), according to the manufacturer's instructions. […]

[1] = Table 2 combination variants, roughly 10 hrs after TRAIL, HEK293
[2] = Table 2 combination variants, HEK293 as in Example I

Molecule	RESPONSE, IMPROVEMENT OVER TL-CP358-DEVD:DD (Table 1, fold-induction, normalized to parental)	BASAL, IMPROVEMENT OVER TL-CP358-DEVD:DD (Table 1, normalized biosensor luminescence at TRAIL addition, HEK293, normalized to parental)	INDUCED, IMPROVEMENT OVER TL-CP358-DEVD:DD (Table 1, normalized luminescence roughly 10 hrs after 1 μg/mL TRAIL, HEK293, normalized to parental)	greater RESPONSE compared with TL-CP358-DEVD:DD (after 2 hrs TRAIL treatment)	greater RESPONSE compared with TL-CP358-DEVD:DD (after 10 hrs TRAIL treatment)	RESPONSE, IMPROVEMENT OVER TL-CP358-DEVD:DD (Table 2 combination variants)	INDUCED, IMPROVEMENT OVER TL-CP358-DEVD:DD [1]	BASAL, IMPROVEMENT OVER TL-CP358-DEVD:DD [2]
B1	3.6 fold	0.2 fold	0.6 fold	2 times	about 4.8 times	–	–	–
B2	–	–	–	–	about 2.2 times	6.735 fold	0.189 fold	0.028 fold
B3	–	–	–	about 2 times	–	5.115 fold	0.852 fold	0.167 fold
B4	–	–	–	about 2 times	–	5.480 fold	0.191 fold	0.035 fold
